Source: PMC8932645
No end group written: not given here. *: point of attachment. Palmitoyl = CCCCCCCCCCCCCCCC(=O)*

Assays:
[1] = target: Xenopus laevis PTCH1 (residues 1–1178) (Xenopus laevis); assay: native gel or EMSA
[2] = target: GAS1 ectodomain (GAS1-Ecto), FLAG-HaloTag7-tagged (human) (UniProt P54826); assay: ITC
Sequence of UniProt P54826 (P54826 40-317): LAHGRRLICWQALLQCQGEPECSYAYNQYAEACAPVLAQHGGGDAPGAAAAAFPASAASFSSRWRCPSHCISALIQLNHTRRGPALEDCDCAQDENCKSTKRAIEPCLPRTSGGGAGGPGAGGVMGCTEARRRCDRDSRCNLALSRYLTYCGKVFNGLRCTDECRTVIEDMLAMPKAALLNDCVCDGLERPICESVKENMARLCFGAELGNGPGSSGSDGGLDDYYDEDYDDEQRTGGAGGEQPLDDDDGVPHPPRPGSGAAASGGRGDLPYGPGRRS

Molecule	percent of SHH transferred from GAS1 to an equimolar amount of PTCH1 [1] [%]	Kd [2] [µM]
dually lipidated Sonic hedgehog (SHH) (from UniProt Q15465 24-197) (ligand)	> 50	–
octanoylated SHH effector peptide (EP)	–	34.6
palmitoylated SHH effector peptide (EP, SHH residues 24–45)	–	3.84
Palmitoyl-SGPGRGFGK [truncated, palmitoylated SHH EP (9aa, residues 24–32)]	–	3.72
